Legend:
[1] = target: T1, human FGFR2b, endogenous, on KATOIII gastric cancer cells (human, UniProt P21802-3 22-822); test: cell-based or functional assay
[2] = target: T2, human FGFR2b ECD fused with murine Fc (human); test: ELISA, plate coated with human FGFR2b-Fc, anti-human IgG HRP
T2 construct: The ELISA text says only 'recombinant human FGFR2b-Fc'; also called recombinant human FGFR2b-Fc; hu FGFR2b
T2 chain: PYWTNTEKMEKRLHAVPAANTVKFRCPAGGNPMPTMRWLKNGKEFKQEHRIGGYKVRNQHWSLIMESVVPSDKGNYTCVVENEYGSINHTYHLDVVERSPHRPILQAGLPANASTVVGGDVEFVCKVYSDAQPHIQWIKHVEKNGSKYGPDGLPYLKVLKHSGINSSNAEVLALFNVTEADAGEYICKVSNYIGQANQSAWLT
Protocol: (§1) The cross-species binding of Ab 26c to recombinant cyno, rat/mouse, and human FGFR2b-Fc fusion proteins was conducted with ELISA. In brief, 96-well ELISA plate were coated with about 100 μl/well 0.1 μg/ml recombinant human FGFR2b-Fc, recombinant rat/mouse FGFR2b-Fc, or recombinant cynomolgus FGFR2b-Fc protein in PBS overnight. Then the plate was blocked with 2% BSA in PBS with 0.05% Tween20 and incubation with antibody samples for 60 min at room temperature, and then washed twice in 1×TBST (Cell Signaling Technology, #9997) and followed by incubation with anti-human IgG HRP conjugate for 60 min at a room temperature. HRP activity was detected with tetra-methylbenzidine substrate (Cell Signaling Technology, #7004) and the reaction was stopped with stop solution (Cell Signaling Technology, #7002). The plate was read at 450 nm. […] Ab 26c has the highest binding affinity to rat/mouse FGFR2b, followed by human FGFR2b, and then cynomolgus FGFR2b.

[3] = target: T3, recombinant human FGFR1b-Fc (R&D Systems) (human, UniProt P11362-19 22-376, limits assumed); test: SPR (Biacore T200), hFGFR1b-Fc amine-coupled to CM5 chip, antibody injected
T3 construct: Bought from R&D Systems; also called hFGFR1b-Fc; not shown: human Fc of the bought fusion protein
T3 sequence (looked up): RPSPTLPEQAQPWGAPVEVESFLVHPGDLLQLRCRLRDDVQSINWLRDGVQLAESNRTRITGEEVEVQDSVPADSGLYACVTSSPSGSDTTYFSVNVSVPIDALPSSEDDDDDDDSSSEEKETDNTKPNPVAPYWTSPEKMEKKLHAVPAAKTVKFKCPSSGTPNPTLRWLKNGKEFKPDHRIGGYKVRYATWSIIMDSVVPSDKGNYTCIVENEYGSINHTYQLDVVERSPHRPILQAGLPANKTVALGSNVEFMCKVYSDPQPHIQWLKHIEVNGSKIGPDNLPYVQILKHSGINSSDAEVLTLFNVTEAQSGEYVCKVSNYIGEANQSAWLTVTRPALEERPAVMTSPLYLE
Protocol: (§2) The binding of antibodies to human FGFR2b or human FGFR1b antigen was determined by surface plasmon resonance (Biacore). Briefly, CM5 sensor chip (GE Healthcare Life Sciences) was firstly activated by a 4 min injection of 1:1 freshly mixture of 50 mM N-hydroxysuccinamide (NHS): 200 mM EDC […]. Then hFGFR2b-Fc or hFGFR1b-Fc was immobilized to activated CM5 sensor chip using Amine Coupling Kit (GE Healthcare Life Sciences) and 1M ethanolamine as the blocking reagent. About 20-30 response units (RU, 1 RU represents the binding of 1 pg of protein per square mm) of antigen protein were captured.
(§3) Antibodies were diluted in HBS-EP+ running buffer (GE Healthcare Life Sciences) (10 mM HEPES, 150 mM NaCl, 3 mM EDTA, 0.05% surfactant P20, pH 7.4) and injected at serial concentration (0, 6.25, 12.5, 25, 50, 100, 150, 200 nM) and surface regeneration of the CM5 sensor chip were included in each running cycle. The association constant, dissociation constant were calculated with Biacore T200 evaluation software (version 1.0). […] In addition, Ab 26c is distinguished from the antibody FPA144 in terms of FGFR1b binding.

[4] = target: T1, human FGFR2b, endogenous, on KATOIII …; test: flow cytometry on KATOIII cells
Protocol: To confirm that the selected antibodies can bind to the endogenous forms of FGFR2b on the cell membrane, flow cytometry was performed using FGFR2b expressing KATOIII cells. All antibodies were prepared in PBS buffer with 10% donkey serum (Jackson Immunogen #017-000-121). 500,000 KATOIII cells were incubated with […] of different concentration of anti-FGFR2b antibody for 60 min at 4° C. Cells were washed twice and incubated in 100 μl of 10 μg/ml of 2nd IgG-Alexa488 antibody (Jackson Immunogen #709546149) for 30 minutes at 4° C. in the dark. Cells were washed three times and resuspended with wash buffer and analyzed on a flow cytometer.

[5] = target: T4, human FGFR2b (beta)-Fc, human Fc fusion (human); test: SPR (Biacore T200), hFGFR2b-Fc amine-coupled to CM5 chip, antibody injected
T4 construct: range 65-267; Made in 293F cells; The Biacore and Ab 26 ELISA text says only 'hFGFR2b-Fc' or 'FGFR2b'; also called hFGFR2b-Fc; human FGFR2b-Fc
Protocol: as §2, §3

[6] = target: T4, human FGFR2b (beta)-Fc, human Fc fusion; test: SPR (Biacore T200), hFGFR2b-Fc amine-coupled to a CM5 chip, antibody injected at 0-200 nM
Protocol: as §2, §3

[7] = target: T5, cynomolgus FGFR2b-Fc (ECD fused to murine Fc) (cynomolgus monkey); test: ELISA, plate coated with cynomolgus FGFR2b-Fc, anti-human IgG HRP
T5 construct: also called recombinant cynomolgus FGFR2b-Fc; cyno FGFR2b
Protocol: as §1

[8] = target: T3, recombinant human FGFR1b-Fc (R&D …); test: SPR (Biacore T200), hFGFR1b-Fc amine-coupled to a CM5 chip, antibody injected at 0-200 nM
Protocol: as §2, §3

[9] = target: T6, rat/mouse FGFR2b ECD fused with murine Fc (rat); test: ELISA, plate coated with rat/mouse FGFR2b-Fc, anti-human IgG HRP
T6 construct: also called recombinant rat/mouse FGFR2b-Fc; rat FGFR2b
Protocol: as §1

[10] = target: T7, recombinant human FGFR3b-Fc (R&D Systems) (human, UniProt P22607-2 23-377); test: ELISA on HuFGFR3b
T7 construct: Bought from R&D Systems; not shown: human Fc of the bought fusion protein
T7 sequence (looked up): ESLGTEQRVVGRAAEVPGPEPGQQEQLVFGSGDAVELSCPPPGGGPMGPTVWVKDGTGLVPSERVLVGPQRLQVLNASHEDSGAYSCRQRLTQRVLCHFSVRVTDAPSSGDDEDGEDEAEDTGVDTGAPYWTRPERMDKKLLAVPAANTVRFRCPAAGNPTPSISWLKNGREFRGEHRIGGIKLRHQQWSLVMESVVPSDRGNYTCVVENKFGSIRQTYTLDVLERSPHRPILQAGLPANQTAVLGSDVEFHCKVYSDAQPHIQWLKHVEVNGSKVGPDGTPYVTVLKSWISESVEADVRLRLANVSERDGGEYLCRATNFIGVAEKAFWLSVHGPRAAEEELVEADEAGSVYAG

[11] = target: T8, recombinant human FGFR4-Fc (R&D Systems) (human, UniProt P22455 22-369); test: ELISA on HuFGFR4
T8 construct: Bought from R&D Systems; not shown: human Fc of the bought fusion protein
T8 sequence (looked up): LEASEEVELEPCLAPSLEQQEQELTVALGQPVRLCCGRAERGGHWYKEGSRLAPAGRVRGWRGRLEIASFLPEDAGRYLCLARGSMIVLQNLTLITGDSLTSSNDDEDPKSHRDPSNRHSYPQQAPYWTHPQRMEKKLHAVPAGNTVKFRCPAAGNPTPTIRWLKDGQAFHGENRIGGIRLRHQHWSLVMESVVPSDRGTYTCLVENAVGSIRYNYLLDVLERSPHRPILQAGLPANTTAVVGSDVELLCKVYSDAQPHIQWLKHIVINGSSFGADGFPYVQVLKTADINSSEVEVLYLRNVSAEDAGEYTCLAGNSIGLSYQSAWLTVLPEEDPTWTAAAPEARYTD

[12] = target: T3, recombinant human FGFR1b-Fc (R&D …); test: ELISA on HuFGFR1b
[13] = target: T4, human FGFR2b (beta)-Fc, human Fc fusion; test: ELISA on HuFGFR2b

T1 sequence (P21802 other isoform, or with tags, fused parts or gaps): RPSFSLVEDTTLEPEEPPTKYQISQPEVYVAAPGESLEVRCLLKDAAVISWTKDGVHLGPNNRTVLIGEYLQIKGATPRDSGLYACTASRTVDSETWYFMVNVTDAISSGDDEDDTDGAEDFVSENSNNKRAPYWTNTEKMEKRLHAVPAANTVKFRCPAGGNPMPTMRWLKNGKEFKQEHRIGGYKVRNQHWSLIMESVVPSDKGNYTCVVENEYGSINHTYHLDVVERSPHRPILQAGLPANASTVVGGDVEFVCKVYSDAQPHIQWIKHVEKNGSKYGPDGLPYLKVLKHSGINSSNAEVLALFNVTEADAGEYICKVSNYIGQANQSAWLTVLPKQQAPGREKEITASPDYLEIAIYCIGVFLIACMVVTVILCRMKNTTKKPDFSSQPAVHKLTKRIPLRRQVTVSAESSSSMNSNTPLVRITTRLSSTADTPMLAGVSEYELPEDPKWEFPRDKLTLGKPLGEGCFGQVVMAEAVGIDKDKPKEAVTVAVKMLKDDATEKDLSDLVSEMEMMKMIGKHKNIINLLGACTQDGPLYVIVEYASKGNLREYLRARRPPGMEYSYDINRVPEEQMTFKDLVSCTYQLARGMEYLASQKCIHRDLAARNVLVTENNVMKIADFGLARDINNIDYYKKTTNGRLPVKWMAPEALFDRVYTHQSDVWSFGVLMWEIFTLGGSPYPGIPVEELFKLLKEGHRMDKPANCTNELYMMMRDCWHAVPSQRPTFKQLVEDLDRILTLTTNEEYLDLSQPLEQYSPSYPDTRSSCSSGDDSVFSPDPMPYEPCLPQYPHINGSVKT

B1: Ab 26c (chimeric antibody based on Ab 26) (antibody, V domains shown)
VH: DVHLQESGPGLVKPSQSLSLTCSVTGYSITSGYYWNWIRQFPGNKLEWMGYITYDGSNNYNPSLKNRLSITRDTSKNQFFLQLSSLTTEDTATYFCARVYYYGSGNFDVWGTGTTVTVSS
VL: SIVMTQTPKILLVSAGDRVTITCKASQSVSNDVAWYQQKPGQSPKLLIYYASNRYTGVPDRFTGSGYGTDFTFTISTVQAEDLAVYFCHQDHTSPFTFGSGTKLEIK
notes: Mouse VH and VL fused to a human heavy chain constant region and a human light chain constant region; also called chimeric Ab26c
In the case of B1, the “ADCC EC50, KATOIII target cells with human NK effector cells (E/T 8:1)” value [1] is reported as 0.034 µg/mL, the “EC50 (read off the curve)” value [2] is reported as ~0.2 nM and the Kd [3] is reported as 3.21 nM. The EC50 [4] was ~3 nM, the Kd [5] was 1.68 nM and the koff [6] was 0.00017 s⁻¹. The kon [6] was 101000 M⁻¹ s⁻¹, the “EC50 (read off the curve)” value [7] was ~0.6 nM and the koff [8] was 0.000552 s⁻¹. The kon [8] was 172000 M⁻¹ s⁻¹ and the “EC50 (read off the curve)” value [9] was ~0.2 nM.

B2: Ab 26 (mouse monoclonal antibody) (antibody, V domains shown)
VH: B1 VH
VL: B1 VL
notes: Mouse hybridoma antibody; also called mouse Ab 26
B2 was tested, and the binding result [10] was “no binding (tested: about 10^-7.3 M (about 5e-8 M))”, the binding result [11] was “no binding (tested: about 10^-7.3 M (about 5e-8 M))” and the “EC50 (read off the curve)” value [12] was ~0.1 nM. The “EC50 (read off the curve)” value [13] was ~0.08 nM.
